Assay: yeast display, Sf9 membrane polyspecificity reagent, FACS + sequencing; frameworks hold sequencing errors
In short: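 Using colony PCR, genes from sorted yeast display clones were amplified, then sequenced on MiSeq at 2 × 250 and filtered by CDR length. The clones had been stained with 10% biotinylated, detergent-solubilized Sf9 membrane reagent for 1 hour at 4 °C and sorted by FACS into low and high (top ~1%) gates on anti-HA and streptavidin fluorescence. Polyreactivity labels come from the gate of origin.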

Sequence | polyreactivity (PSR sort gate)
QVQLVESWGGLVQAGGSLRLSCAASGSIFSDYAMGWYRQARGKERELVAAITQSGGSTYADSVKGRFTISRDNAKNTVYLQMNSLKPDDTAVYYCAADEVPGFGYPPYPWFDYWGQGTQVTVSS | low polyreactivity
QVQLVESWGGLVQAGGSLRLSCAASGSNFELYAMGWYRQAPGKERELVASITWSASNTHYADSVKGRFTISRDNAKNTVYLQINSLKTEDTAVYYCAKDVLYGLFDGDSWGQGTQVTVSS | low polyreactivity
QVQLVESWGGLVQAGGSLRLSCAASGSTFYAYAMGWYRQAPGKERELVAAIDSGGSTYYADSVKGRFTISRDNAKNTVYLQMNSLIPEDTAVYYCAVRHRYTRAYWGRDYWGQGTQVTVSS | low polyreactivity
QVQLVESWGGLVQAGGSLRLSCAASGSTFYWYTMGWYRQAPGKERELVARISSSGSTNYADSVKGRFTISRDNAKNTVYLQMKSLKPEDTAVYYCKKDWIYRGYDYWGQGTQVTVSS | high polyreactivity
QVQLVESWGGLVQAGGSLRLSCAASGYTIPDNAMGWYRQAPGKEREWVATITSGASTYYADSVKGRFTSSRDNAKNTVYLQMNSLNPEDTAVYYFARDPWALGGIGSDQKYDYWGQGTQVTVSS | low polyreactivity
QVQLVESWRGLVQAGGSLRLSCAASGNTFVYNAMRWYRQAPGKERELVAGITKTGGRTYYADSVKGRFTISRDIAKNTVYLEMNSLKPEDTAVYYCAARPWNDGYYVGRFHMVYWGQGTQVTVSS | low polyreactivity
QVQLVETAAGLVQAGGSLRLSCAASGSIYYSYAMGGYRQAPGKERELVAAITDSGDSTYYADSVKGRFTISRDNAKNTVYLQMNSLKPEDTAVYYCAAGFYPYYYWGLGTQVTVSS | low polyreactivity
QVQLVETAGGLVQARGSLRLSCAASGFIFRYNAMGWYRQERGKERELVAAINYRGGSTYYADSVKGRFTISRDNAKNTVYLQMNSLKPEDTAVYYCAVLTYRGRFEYWGQGTQVTVSS | high polyreactivity
QVQLVETAGRLVQAGGSLRLSSAASGFTFYIYAMGWSRHAPGKERQLVAAISGGGSTYYADSVKGRFTISRDNAKNTVYLQMNSLKPEVTAVYYCAVFPAAIYHRRGTYDYWGQGTQVTVSS | high polyreactivity
QVQLVETGAGLVQAGGSLRLSCAPSGNTLGPYAKGWYRQGPGKERELVAAITWSGGITDYADSVKGRLTISRDNAKKTVYLQMNSLKPEDTAVYYCATKLTYTLTSGAYAYDYWGQGTQVTVSS | low polyreactivity
QVQLVETGGGIVQAGGILRLSCAYSGSIFYLYAMGWYRQAPGKERELVAAISTSGGRTHYADSVKGRITISRDNAKNTVYLQMNSLKPEDTAVYYCAAPAARPDGGYGYWGQGTQVTVSS | high polyreactivity
QVQLVETGGGIVQAGGSLRLSFAASGFTSDYNAMGWYRQAPGKERELVAAISYSGGSTYYADSVKGRFTISRDNAKNTVYLQMNSLKPEDTAVYYCANGRYGRRYYYWGQGTQVTVSS | high polyreactivity
QVQLVETGGGIVQAGGSLRLSSAASGRIFASNAMGWYRQAPGKERELVAAIDQCGGSTYYADSVKGRFTISRDNAKNTVYLQMNSLKPEDTAVYYCAADYITAYPRLYNYWGQGTQVTVSS | low polyreactivity
QVQLVETGGGLFQAGGSLRLSCAPCGSIFFSIAMGWYRQAPGKDRELVAAIDSGASSTYADSVKGRFTSSRDHAKNTVYLQINSLKPEDTAVYYFAADYPATGADGYDYWGQVTQVTVSS | low polyreactivity
QVQLVETGGGLVQAGGSFRLSCAASGGIFRTYAKGWYRQAPGKERELVAAISRSGGSTYYADSVKGRFTISRDNAKNTVYLQMNSLKPEDTAVYYCAASRPYYPLYGYWGQGTQVTVSS | high polyreactivity
QVQLVETGGGLVQAGGSHRLSCAASGSIFSSYVMGWYRQAPGKERELVDAISSGGRTYYADSVKGRFTISRDNAKNTVYLQMNSLKPDETAVYYCAARTRRYPRPGLSPGNYWGQGTQVTVSS | high polyreactivity
QVQLVETGGGLVQAGGSLRISCAPSGSIFQRYAMGWYTQAPGKERELVAAITGSGGSTYYADSVMWRFTISRDNAKKTVYLQMNILKPEDSAVYYCAKRYPSRQYTLYNYWGLGTQVTVSS | high polyreactivity
QVQLVETGGGLVQAGGSLRITCAASGSIFSYYDMGLNRQAPGNEREMVAAFSWDGGDRTYADSVKGRFTISRDIAKNTVYLQMNSLKPEDSAVYYCAKNTGSYRRVNLDYWGQGTQVTVSS | low polyreactivity
QVQLVETGGGLVQAGGSLRLICAASGSIFQGNVMGWYRQAPGKERELVAAISSGGRTYYADSVKGRFTISRDNAKNTVYLQMNSLKPEDTAVYYCAASWLTSYAYIMYYWGQGTQVTVSS | high polyreactivity
QVQLVETGGGLVQAGGSLRLRGAASGFTFPWYAMGWYRQAPGKERELVAAISTSGDSTYYADSVKGRFTISRDNAKNTVYLQMNSLKPEDTAVYYCAARVVRGRYGYWGQGTQVTVSS | high polyreactivity
QVQLVETGGGLVQAGGSLRLSCAASFRSNTMGGYRQAPRKERELVAAISGSGSRTYYADSVKGRFTISRDNAKKTVYLQMNSLKPEDTAVYYCAALSYRNSEVGTSRGDYWGQGTQVTVSS | high polyreactivity
QVQLVETGGGLVQAGGSLRLSCAASGFNLPIYAMRCYRQPPGKEREFVAAITWTGGSTYYADSVKGRFTISRDNAKNTVYLQMNSLKPEDTAVYYCNAEGPSYYYIIYDYWGQGTQVTVSS | high polyreactivity

Sequence | polyreactivity (PSR sort gate)
QVQLVETGGGLVQAGGSLRLSCAASGFTFTGNTMGWSRQAPGKERELVAAISQSGSRTYYADSVKGRFTISRDNAKNTVYLQMNSLKPEDTAVYYCNADYSSYWTSYDYWGQGTQVTVSS | high polyreactivity
QVQLVETGGGLVQAGGSLRLSCAASGFTFYSYAMGWSRQSPRKEREFVAAGSTYYADSVKGRFTISRDYAKNTVYLQMNSLKPEDTAVYYCAADSYDVSRRYEYEYWVQGTQVTVSS | low polyreactivity
QVQLVETGGGLVQAGGSLRLSCAASGGILVGYALGWYRQAPGKERELVAAINYSGGSTNYADSVKGRFTISRDNAKNTVYLQMNSLKPEDTAVYYCAARSTARYGYWGQGTQVTVSS | low polyreactivity
QVQLVETGGGLVQAGGSLRLSCAASGIIFATYAMGWYRQAPGKEMELVAAISRRGGYTYYADSVKGRFTISRDNANNTVYLQMNSLKPEDSAVYYCAKSNTLASVAHDYWGQGTQVTVTS | high polyreactivity
QVQLVETGGGLVQAGGSLRLSCAASGIIFPFYAMGWYRQAPGKERELVAAITSDGNTNYADSVKGRFTISRDNAKNTVYLQMNSLKPEDTAVYYCNAETQYGVLSWHSTRHDYWGQGTQVTVSS | low polyreactivity
QVQLVETGGGLVQAGGSLRLSCAASGITFGRNTMGWYRQAPGKERELVAAIDSGANTYADSVKGRFTISRDNAKNTVYLQMNSLKPEDTAVYYCAVDGGEFSSYGYWGQATQVTVSS | low polyreactivity
QVQLVETGGGLVQAGGSLRLSCAASGITFPYYAMGWYRQAPGKERELVDAITIRSGRTYYADSVKGRFTISRDNAKNTFYLQMNSLIPEDTAVYYCAARLSNTYGYWGQGTQVTVSS | high polyreactivity
QVQLVETGGGLVQAGGSLRLSCAASGITFYEYALGWYRQAAGKERELVAAISTSGGNTYYAESVKGRFTISRDNAKTTVYLQMNSLKPEDTAVFYCAAQGTASSYSGGDYWGQGTQVTVSS | low polyreactivity
QVQLVETGGGLVQAGGSLRLSCAASGNTFHPYAMGWYRQSPGKERELVAAITKSVGSTYYADSVKGRFTLSRDNAKNTVYLQMNSLKPEDTAVFYCARDSLQVFYPYASDDSWGQGTQVTVSS | low polyreactivity
QVQLVETGGGLVQAGGSLRLSCAASGRIFGDNAMGWYRQAPGKEREFVATINGSGGSTYYADSVKGRFTISRDNAKNTVYLKMNRLKPEDTAVYYCFVQQNYGYDYWGQGTQVTVSS | low polyreactivity
QVQLVETGGGLVQAGGSLRLSCAASGRIFGRYAMGWSRQAPGKERELVASISRGGSTNYADSVKGRFTISRDNAKNTVYLQMNSLKPEDTAVYYCAKSGGVGGADRVGSWGQGTQVTVSS | low polyreactivity
QVQLVETGGGLVQAGGSLRLSCAASGRIFGVNARGWYRQAPGKERELVAAIFSGGSTYYADSVKGRFTISRDNAKNTVYVEMNSLKPEDTAVYYCAARFARYDWSMYYWGQGTQVTVSS | low polyreactivity
QVQLVETGGGLVQAGGSLRLSCAASGRIFSPYALGWYRQAPGKERELVAAISYDDGITYYADSVKGRFTISRDNAKNTVYLQMNSLKPEDTAVYYCAADSVTRPAGDYWGQGTQVTVSS | low polyreactivity
QVQLVETGGGLVQAGGSLRLSCAASGRIFSVYAMGWYRQAPGKERDLVAGITSSGGSTYYADSVKGRFTISRDNAKNTVYLQMISLKPEDTAGYYCATRQVSRLYPYRYNYWGQGTQVTVSS | high polyreactivity
QVQLVETGGGLVQAGGSLRLSCAASGRTFAGNAMGWYRQAPGKERELVAGISSGGSTNYADSVKGRFTISRDNAKNTVYLQMNSLNPEDTAVYYCAKRYFRKGYPLFHYAYGYWGQVTQVTVSS | high polyreactivity
QVQLVETGGGLVQAGGSLRLSCAASGRTFAKYAMGWYRQAPGKERDLVASISGRGTNTYYADSVKGRFTISRDNAKNTVYLQMNSLKPEDTAVYYCAATYVYPYRDSHYFYWGQGTQVTVSS | high polyreactivity
QVQLVETGGGLVQAGGSLRLSCAASGRTFGNYAMGWYRQAPGKERELVAAITSAGRTYYADSVKGRFTISRDNAKNTVYLQMNSLKPEDTAVYYCAVSVIYWSGSQVSVEYYYWGQGTQVTVSS | low polyreactivity
QVQLVETGGGLVQAGGSLRLSCAASGRTFGPYVMGWYRQAPGKERELVAGITSGGSTNYADSVKGRFTISRDNAKNTVYLQMNSLKPEDTAVYYCNADYVIYFGLYEYWGQGTQVTVSS | low polyreactivity
QVQLVETGGGLVQAGGSLRLSCAASGRTFLYYAMGWYRPEPGKERELDAAIRRGSSTYYADSVKGRFTISRDKAKNTVYLQMNSLKPEDTAVYYCAARGRYRIGQGRYGKRYDYWGQGTQVTVSS | high polyreactivity
QVQLVETGGGLVQAGGSLRLSCAASGRTFRWYAMGWYRQAPGKERELVADISSVGSTDYADSVKGRFTISRDNAKNTVYLQMNSLKPEDTAVYYCAADFSPRRYHNRSFGYWGQGTQVTVSS | low polyreactivity
QVQLVETGGGLVQAGGSLRLSCAASGRTFYFNTMGWYRQAPGKERELVAAISSGVNTYYADSVKGRFTISRDNAKNTVYLQMNSLKPEDTAVYYCAASARTYVQSGYWGQGTQVTVSS | high polyreactivity

From the nanobody polyreactivity screen of Harvey et al. (2022)
